Assay results from the supplement of paper PMC9170038.

Tested on: MS2 coat protein
Assay: apparent KD of MS2 coat protein; designed switch direction (-1 OFF switch, 1 ON switch): -1; higher = weaker reporter binding
In short: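 Designed RNA switches with common flanks were transcribed on Illumina chips by stalled E. coli RNA polymerase and titrated with SNAP-549-labelled MS2 coat protein, from 0.7 or 1.5 nM doubling to 3 µM, in Tris-HCl pH 7.5 buffer with KCl, MgCl2, BSA, DTT, tRNA and Tween-20. Steps lasted 0.8–1.5 h (lowest) to 10–20 min (highest). Titrations ran without input, with 200 uM small-molecule ligand, or with an oligonucleotide input. Normalised cluster fluorescence was curve-fitted, and apparent KD is the per-design median over clusters.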

[1] = input ligand: microRNA oligo, concentration not stated
[2] = Eterna round: R95, input ligand: microRNA oligo, concentration not stated
[3] = Eterna round: R95, input ligand: FMN 200 uM
[4] = Eterna round: R95, input ligand: none

| Sequence | apparent KD of MS2 coat protein (input ligand: FMN 200 uM) | apparent KD of MS2 coat protein (input ligand: none) | apparent KD of MS2 coat protein [1] | apparent KD of MS2 coat protein [2] | apparent KD of MS2 coat protein [3] | apparent KD of MS2 coat protein [4] |
| --- | --- | --- | --- | --- | --- | --- |
| AAUAUUUUAGGAUAUGGCGGAAUAGACAUGAGGAUCACCCAUGUUAGAGGCGUGGUGAAGUUAGAAGGGAGGUGUU [Eternabot (L1) Solution 6] (Eterna round: R97, puzzle: Exclusion 5) | 60 nM | 113 nM |  |  |  |  |
| ACAUGUCAUCGAGGAUAUUGUACACAUGAGGAUCACCCAUGUAUUCGGUUGCUCUCGCGUGAGUUCGAGAAGGCGAUGUACAUU [Ex NG2 #82] (Eterna round: R96, puzzle: Exclusion NG 2) | 105 nM | 29.3 nM | 24.2 nM |  |  |  |
| GGUUGACAUGAGGAUCACCCAUGUGAGGAUAUCGGCUGGUACGUGUUGGCUGGCAUCUCGAGAAGGCACAUAGG [Exclusion 1 V59] (puzzle: Exclusion 1) |  |  |  | 155 nM |  |  |
| UUUUAACAUGAGGAUCACCCAUGUGAGGAUAUGGUUUUUUUUUUUUUUUUUUUUUUUUCCAGAAGGCACAUUUU [My solution] (Eterna round: R96, puzzle: Exclusion 1) | 269 nM | 31.6 nM | 44.2 nM |  |  |  |
| CUGUUUUUCGCAGGAUAUGCUCCUCCUUUAUUAGCAGAAGGGCGUUAAACAUGAGGAUCACCCAUGUAUGGUAAUGACAUUUUC [JR_ExcNG1_Sub062] (Eterna round: R96, puzzle: Exclusion NG 1) |  |  | 29.8 nM |  |  |  |
| CAGCUGAAUGUCAGGAUAUCUAGAGCUGCGGCUCUAGAGAAGGGACAUGAGGAUCACCCAUGUCACUCCAGCUG [BmEx4/3-B3] (Eterna round: R97, puzzle: Brourd's mod of Exclusion 4) | 21.3 nM | 16.4 nM |  |  |  |  |
| GGAAGCAAGGAAUAACUAAACAUGAGGAUCACCCAUGUAGAGCCCAUGUGCACGCAAAGCGUGCAAGCUCGUCUUAU [AK-miRNA-r3-17] (Eterna round: R97, puzzle: Sensor, turn-off variant 1) | 64.4 nM | 80.8 nM |  |  |  |  |
| CAAAACACUGGAGGAUAUUGGAAAGGAAGUGUACAAGAAGGCCAGCUCUAACAUGAGGAUCACCCAUGUCCAGGGCAUGGGCAA [PowerStrip EXNG 1.12] (Eterna round: R96, puzzle: Exclusion NG 1) | 31.8 nM | 11.7 nM | 19.9 nM |  |  |  |
| AAGAAACAUGAGGAUCACCCAUGUGAGGAUAUGAAAAAGAAAAGAAAAGAAAGAAGAAUCAGAAGGCACAAAGA [salish99-ex1_r3_080] (puzzle: Exclusion 1) |  |  |  | 22.2 nM | 26.9 nM | 27.1 nM |
| GCACCGCGAGGAUAUACAUGAGGAUCACCCAUGUGUCCGCAGCGAUGUGUGUACAAAUGUAGAAGGCGCGUAAA [EX3 #60] (Eterna round: R97, puzzle: Exclusion 3) | 21.5 nM | 12.1 nM |  |  |  |  |
| CUUUUGUGAGGAUAUCAGUAGUAAAUAAAUAAUAUUACUACUGAGAAGGCACAUGAGGAUCACCCAUGUUCCUC [salish99_ex3_r3_083] (puzzle: Exclusion 4) |  |  |  | 42.3 nM |  |  |
| GGAUAUAACGUAGGAUAUGAGAGAAACAGACGAUCAGAAGGACGACAUGAGGAUCACCCAUGUGAUCUAUCAAUAUUAUACAUG [Prohibition 97 - Jieux - Exclusion NG 1] (Eterna round: R96, puzzle: Exclusion NG 1) | 446 nM | 300 nM | 180 nM |  |  |  |
| UGAGCAUGAGGAUAUACAAGGCGACCGUGAGGUCGAGGGUUACAUGAGGAUCACCCAUGUAGAAGGCAUGUUCU [jl-ex2-4.10] (Eterna round: R97, puzzle: Exclusion 2) | 514 nM | 48.3 nM |  |  |  |  |
| GAAAAGGUAGAGGAUAUUUCAGGUCAAAGCUGCAAAGAAGGCUGCACAUGAGGAUCACCCAUGUGGUCUUAAAA [Mod of Quesina 7 - Jieux - Exclusion 6] (Eterna round: R97, puzzle: Exclusion 6) | 90.4 nM | 25.7 nM |  |  |  |  |
| CACCGUUACAGAGGAUAUGGUACAUGAGGAUCACCCAUGUAAUAAAUGAGAAUUUCGGAUGUAUUCCAGAAGGCUGUAAUCGGC [Ostricism 65 - Jieux - Exclusion NG 2] (Eterna round: R96, puzzle: Exclusion NG 2) | 74.9 nM | 53.5 nM | 34.1 nM |  |  |  |
| CAGCCCUGAGGAUAUCCCUCCUUGUACAUGAGGAUCACCCAUGUUCUCCUCUGGGCUUUGGGAGAAGGCAGAUCUC [Megrez-6.9] (Eterna round: R97, puzzle: Exclusion 5) | 41.1 nM | 46.5 nM |  |  |  |  |
| GUAGAGUCAGGAUAUACGAGAUCGAAAGAUCAGCGAUCCUUACAUGAGGAUCACCCAUGUAGAAGGGACUCUAC [Omei mod 11 to Eli's favorate candidate (ch.parushev)] (Eterna round: R97, puzzle: Exclusion 2) | 254 nM | 24.3 nM |  |  |  |  |

| Sequence | apparent KD of MS2 coat protein (input ligand: FMN 200 uM) | apparent KD of MS2 coat protein (input ligand: none) | apparent KD of MS2 coat protein [1] | apparent KD of MS2 coat protein [2] | apparent KD of MS2 coat protein [3] | apparent KD of MS2 coat protein [4] |
| --- | --- | --- | --- | --- | --- | --- |
| UUUAAUUUUUUUUUUUUACAAGCUUUUUGCUCGUCUUAUACAUGAGGAUCACCCAUGUGGGUAAAGGAUAAAUUAUC [JMF 25] (puzzle: Sensor v3, turn-off variant 2) |  |  |  | 39.1 nM | 31.6 nM | 34.1 nM |
| CUGUACUGAGGAUAUACAUGAGGAUCACCCAUGUUCCAAGGCUAGGAAACUAGCAAAGGUAGAAGGCAGUACAG [Mat - Exclusion 3 - Eli Mod - D67] (Eterna round: R97, puzzle: Exclusion 3) | 215 nM | 17.8 nM |  |  |  |  |
| CGACGUAAAGGAUAUACAUGAGGAUCACCCAUGUCCCUACAAUGAGUAGGUACACGCAGUAGAAGGUUACUUCG [Eternabot (Original) Solution 15] (Eterna round: R97, puzzle: Exclusion 3) | 107 nM | 37 nM |  |  |  |  |
| AACAGUACAGGAUAUACAUGAGGAUCACCCAUGUGAGACUUAAGUGGCGUACCACAAAGUAGAAGGGUACUGGA [JL Maslow Revisted mod 8] (Eterna round: R96, puzzle: Exclusion 3) | 838 nM | 90.3 nM | 85.9 nM |  |  |  |
| AGUCGGUCAGGAUAUGCAAUUGUGGACAUGAGGAUCACCCAUGUAACGUGGGCUUGGUUUGUAGAAGGGACGUGCA [EX5 #90] (Eterna round: R97, puzzle: Exclusion 5) | 378 nM | 626 nM |  |  |  |  |
| CGGUGUAGAGGAUAUACGUGAAGAUAAGAAAAUAAUAAUUAACAUGAGGAUCACCCAUGUAGAAGGCUAUAGCG [JR_Ex2_Sub082] (Eterna round: R97, puzzle: Exclusion 2) | 66.3 nM | 24.9 nM |  |  |  |  |
| GCCCGGCCUGUAGGAUAUGGUUCCGUUUCGGUUCCAGAAGGACACGAGGAUACAUGAGGAUCACCCAUGUGCUCGUCACCGGGC [salish99_ExNG1_r04_403] (Eterna round: R96, puzzle: Exclusion NG 1) | 8.67 nM | 11.3 nM | 8.6 nM |  |  |  |
| UAUAAAGGCUCAGGAUAUGGUGCGUCACAUGAGGAUCACCCAUGUAACGUGGCGGAACCUGCGCGCUAGAAGGGAGUAGCGAAA [Laensoqu] (Eterna round: R96, puzzle: Exclusion NG 2) | 8.44 nM | 10.7 nM | 8.05 nM |  |  |  |
| UACAUGAGGAUCACCCAUGUUUUGUCGUGUAUGGUAUUUAUCUAGGAUAUCAGGUUAUUUAUUUAUGAGAAGGAGAAUAUUAAU [JMF's solution 25] (Eterna round: R96, puzzle: Exclusion NG 3) | 33.3 nM | 34.3 nM | 37.5 nM |  |  |  |
| AUGUGCACGCUGCGGUCCUACAUGAGGAUCACCCAUGUGGUCUGGUGGCGUGGGUCACCGGACUUGGCUCGUCUUGU [salish99_S_TOV1_R5_056] (Eterna round: R97, puzzle: Sensor, turn-off variant 1) | 33.7 nM | 40.1 nM |  |  |  |  |
| AGAUGGCGAGGAUAUACAUGAGGAUCACCCAUGUGAAGAUAUAAAGUGAGGAAGAAAAGUAGAAGGCGCUGUCA [Mat - Exclusion 3 - Mod of Salish D25] (puzzle: Exclusion 3) |  |  |  | 48.8 nM | 225 nM | 63.7 nM |
| GCUAUUAGAGGAUAUACAUGAGGAUCACCCAUGUGGUCAAGUCGGUGCCAACUGUUAGGUAGAAGGCUGGAGCC [Eternabot (L1) Solution 76] (Eterna round: R97, puzzle: Exclusion 3) | 44.8 nM | 49.7 nM |  |  |  |  |
| CGCUGGUGAGGAUAUGGGUGUGGUUACAUGAGGAUCACCCAUGUGGAGUCGCAUGUGGGUCCAGAAGGCGCGGGUG [-25.2, -23.4 kcal, 18% A] (Eterna round: R97, puzzle: Exclusion 5) | 158 nM | 215 nM |  |  |  |  |
| AGCCAAGCAGGAUAUAUCCGGGAUAACAUGAGGAUCACCCAUGUGACCGAUUGAUGUCCUAUAGAAGGGCUUGGGA [Mod of ViennaUCT 22 - Jieux - Exclusion 5] (Eterna round: R97, puzzle: Exclusion 5) | 176 nM | 43.5 nM |  |  |  |  |
| GUUUGCGCAGGAUAUACUCCUCCAUGUUAAGAGCAUGUGCGACAUGAGGAUCACCCAUGUAGAAGGGCGAGACG [Eternabot (L2) Solution 8] (Eterna round: R97, puzzle: Exclusion 2) | 194 nM | 345 nM |  |  |  |  |
| GUUGUUUAUGUAGGAUAUGCCAGGCGAGCCUAAGCAGAAGGACAUGAGGAUCACCCAUGUAUUGCGGUCUGCGUUCAGAUCGCU [salish99_ExNG1_r4_017] (Eterna round: R96, puzzle: Exclusion NG 1) | 63.5 nM | 23.7 nM | 18.3 nM |  |  |  |
